What was measured:
[1] = target: Gαs-Rluc8 (UniProt P63092); assay: FRET or BRET; BRET in live HEK 293 cells transiently co-expressing Gαs-Rluc8 with Venus-Gγ2 or Venus-Gβ1 in the presence of hFSHR or hLHR; read every 0.5 s before and after injection of 10 nM hFSH or hCG; 96-well format
[2] = target: human luteinizing hormone receptor (wildtype) (human) (UniProt P22888)
[3] = target: hLHR-Rluc8 (human) (UniProt P22888)
[4] = target: FSHR/AVPR2-CT chimera

UniProt P63092, sequence (P63092 whole entry): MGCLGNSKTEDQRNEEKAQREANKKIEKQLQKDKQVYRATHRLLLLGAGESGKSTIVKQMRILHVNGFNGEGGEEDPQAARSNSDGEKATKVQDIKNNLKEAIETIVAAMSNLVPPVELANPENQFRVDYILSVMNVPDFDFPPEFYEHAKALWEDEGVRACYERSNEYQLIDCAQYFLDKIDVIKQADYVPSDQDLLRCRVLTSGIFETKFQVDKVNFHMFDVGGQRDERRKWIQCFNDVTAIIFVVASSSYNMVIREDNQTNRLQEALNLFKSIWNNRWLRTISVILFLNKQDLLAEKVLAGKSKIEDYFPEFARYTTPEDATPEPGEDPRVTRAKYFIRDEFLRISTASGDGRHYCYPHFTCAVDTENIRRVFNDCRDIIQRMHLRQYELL
Venus-Gγ2, sequence (P59768 whole entry): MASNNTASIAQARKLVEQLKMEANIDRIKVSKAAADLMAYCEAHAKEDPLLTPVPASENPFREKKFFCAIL

Substance: Venus-Gγ2 (from UniProt P59768 1-71) (natural protein)
- t1/2 of the hFSH-induced BRET decrease (with hFSHR) [1]: 16.8 s

Substance: human chorionic gonadotropin (from UniProt P01215 25-116; P0DN86 21-165) (ligand)
- cAMP accumulation, HTRF assay in HEK 293 cells expressing hLHR; EC50 of hCG [2]: 0.0019 nM
- cAMP production, BRET sensor CAMYEL in HEK 293 cells expressing hLHR; EC50 of hCG [2]: 0.0035 nM
- receptor internalization, decrease of BRET between hLHR-Rluc8 and the plasma membrane marker Venus-KRas in HEK 293 cells; EC50 of hCG [3]: 4.9 nM

Substance: β-arrestin 2-TEV fusion protein (from UniProt P32121 1-409) (natural protein)
- TANGO assay (tTA-dependent firefly luciferase reporter in HTLA cells, 14–20 h with increasing hFSH); EC50 of hFSH [4]: 5.7 nM
